The values that follow are results of earlier work, collected in publication PMC9214263.

The data set deals with TNFα (Homo sapiens) (UniProt P01375). Briefly: KinExA. A general note: In KinExA the mixture passes briefly over coated beads that capture the unbound partner.
Chain of TNFα (Homo sapiens) (P01375 77-233): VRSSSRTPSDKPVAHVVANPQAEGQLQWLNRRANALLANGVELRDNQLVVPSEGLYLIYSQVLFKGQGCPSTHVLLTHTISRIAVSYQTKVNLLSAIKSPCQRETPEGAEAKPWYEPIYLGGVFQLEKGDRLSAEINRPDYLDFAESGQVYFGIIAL

A word on the Kd: it is the equilibrium constant for the complex coming apart. On to infliximab, for which the equilibrium dissociation constant (Kd) is 4.2 pM.
